From the RNAGym collection of RNA variant scans (doi:10.1073/pnas.2313332121)

B1: TPR t1 (parent)
chain: GACCAAUCUGCCCUCAGAGCUCGAGAACAUCUUCGGAUGCAGAGGAGGCAGGCUUCGGUGGCGCGAUAGCGCCAACGUCCUCAACCUCCAAUGCAUCCCACCACAUGAUGAUGCCUGAAGAGCCUUGGUUUUUUG

Variants of: B1
Assay: polymerase ribozyme fitness, log enrichment relative to wild type (log ratio); higher = more active; in vitro selection for triplet polymerase activity
Method in brief: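 Libraries of mutants in each subunit of a heterodimeric triplet polymerase ribozyme were generated by PCR and transcribed. In triplicate, each went through one in vitro selection round: annealing with biotinylated primer, partner subunit and triplets; frozen incubation at −7 °C; gel excision of extended constructs; streptavidin-bead capture; RT-PCR. Fitness, taken from Illumina sequencing of input and output libraries, is the logarithm of a genotype's enrichment over wild-type enrichment, averaged across replicates with inverse-variance weights. The logarithm is base 2, and genotypes needed ≥10 input reads and ≥1 read per output to be kept.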

Point of comparison: C64U G107U, “polymerase ribozyme fitness (log ratio)” value -5.43. Against it:
- C64A C86U A103U C114A — lower, -6.49
- U67C G93U — higher, -5.03
- A68C C72U U78C C114G G120A C123U — lower, -7.64
- C64A C123U — higher, -4.1
- C64A C123G — higher, -3.71
- C64A C123A — higher, -3.79
- A66G C72G A95U G117U U132C — lower, -6.16
- C64U C89A — higher, -1.58
- C64U C89U — higher, -0.57
- C64U C89G — higher, -1.73
- C64U G122A — higher, -0.796
- A66G C79G U130C — higher, -3.06
- G63U C64A — lower, -6.48
- G63U C64U — lower, -6.21
- G63U C64G — higher, -4.92
- A68G A74G C79A — higher, -4.8
- C64U A90U — higher, -0.99
- G63U C101U — higher, -2.57
- A66C U78C C101G C123A U132A — higher, -3.72
- C64U G77C C79U C98A A121U U133C — higher, -2.71
- G63U U132A — higher, -0.852
- G63U U132C — higher, -2.69
- G63U U131A — higher, -0.516
- A68G A103C — higher, -5.02
- C64U U131A — higher, 0.0289
- C64U A84C C123G G135C — higher, 1.41
- G63U C73A C97U — higher, -4.28
- G63U G107A — higher, -4.13
- G69A C79A A111G — within 0.2 log units, -5.28
- C64A A83G U92G C99U C104A — lower, -8.04
- C64U C72U A83G U133G — higher, -1.1
- C64U U78C C104U — higher, 0.13
- G63U G120A U129G — higher, -2.16
- C64U C72A A108C — lower, -5.82
- G63U C82A — higher, -0.955
- G63U C82U — higher, -1.76
- C64U U116G — higher, -1.88
- C64A C94A — lower, -6.34
- C64U A103U — higher, -3.47
- G63U G127U — higher, -1.73
- A66U A83G C86U — higher, -2.39
- G63U C115U — higher, -3.37
- G63U C115G — higher, -2.29
- G63U C115A — higher, -1.22
- G63U C104U — higher, -1.36
- C64U A121G — higher, 1.93
- C64U C79U — higher, -0.541
- C64U A111G — higher, 1.06
- C64A G117A — lower, -6.29
- G63U U106G — higher, -3.21
- A66C G93A A121G — higher, -0.199
- A66U C97U G120U C123U — higher, -0.305
- A68G U81A — higher, -4.45
- A68G U87C A111C G135U — lower, -6.03
- G65A G110A — within 0.2 log units, -5.47
- A68G C73U C124U G135U — higher, -3.48
- C64U C82A C124A — higher, 1.31
- G63U C89G — higher, -1.88
- A66C C72U C80U U126G G128A — higher, -4.37
- A68U G69C A121C — higher, -3.61
- G63U U112A A119G — higher, -0.127
- C64U C124A — higher, 1.41
- G63U G77A — higher, -3.45
- A68U C102A — lower, -6.73
- C64U A100U U130A — higher, -1.02
- C64U A118G — higher, -1.18
- A68U U78C — lower, -6.34
- G63U U78C — higher, -2.92
- G65A G69A U112C — higher, -4.9
- A66U C72G — higher, -1.63
- A68G G110U — higher, -3.66
- A68G G110C — lower, -5.66
- C64A A90G U112G — within 0.2 log units, -5.49
- G63U U78C C123U — higher, -1.9
- C64U A95G C115G — higher, -2.07
- A66C A111G G117U — lower, -7.39
- C64U C114G C115A C123G C124A — higher, -4.37
- A68G G71A — higher, -4.15
- A66G A100U G120C — higher, -0.756
- G63U C79A G110U — higher, -5.14
- C64A U87A G93A U112A — higher, -5.11
- A66C C85A — higher, -3.06
- G63U C123G — higher, 0.817
- G65U C123G — higher, -4.68
- C64U G65A — higher, -4.3
- G63U G120U U126A — higher, -1.69
- C64U U130G — higher, -0.668
- C64U C72G U78A G127U U129C — higher, -1.9
- C64G C82G C89U A100G A111C U116A U129G — within 0.2 log units, -5.44
- A66C A75G — higher, -1.09
- A68U C124A — higher, -4.62
- A68U C124G — higher, -4.93
- A68G C85A — higher, -4.94
- C64U U112A — higher, 0.346
- C64U U112C — higher, 0.999
- C64U U112G — higher, -0.0625
- A66U C76G U78A U106A — higher, -0.894
- C64U U92C — higher, -1.23
- C64U U92G — higher, -3.31
- C64U G117C C123U — higher, -4.94
- A66C C124U — higher, 0.285
- G63U G117C — higher, -4.05
- G63U G117A — higher, -1.66
- G63U C94G A121U — higher, 0.0576
- A66C C86U C114G U129G — higher, -4.68
- G63U C70U U129A — higher, -1.48
- G65A C72U — lower, -6.47
- A66G U87A — higher, -0.982
- A68G C72G A83U C86A C104U U112G U116C A119C — lower, -6.61
- A66C C85U C86U C97U — higher, -3.15
- A68G U131A — higher, -3.5
- C64U C73G C94U G120C — higher, -3.99
- G69A C72U — higher, -1.06
- C64U U78C A83C A100C C101G U129G — higher, -3.92
- C64U G127U — higher, -0.401
- C64U G93A U96A U126G — within 0.2 log units, -5.25
- A68G U87G — higher, -3.29
- G63U C101U C115U C124U — higher, -3.55
- C64A A84C — higher, -5.15
- G63U G93U C123U — higher, -1.46
- G69A A83U — higher, -3.05
- C64A — lower, -6.28
- C64U — higher, -0.125
- C64G — lower, -6.67
- G69A A111G — higher, -2.61
- A68G C73G U129C — lower, -5.86
- G63U C70G C89A A90U A100U A121G — higher, -2.02
- A66U C79G — higher, -4.01
- C64A U106C — lower, -6.82
- C64G A66G G69C C82A A105U — higher, -3.01
- G69A C82U — higher, -2.48
- A66U C85G — higher, -1.65
- A66U C85U — higher, -2.22
- C64U A91C G93A G120A U133G — higher, -1.92
- A66C C88U G113U — lower, -5.8
- A66U A90G A91G A103G G107C A121G — lower, -5.84
- C64U A103C G117U — lower, -6.58
- C64G C72U — lower, -6.14
- C64U A66G C86U A95U C99A G117C — lower, -7.47
- C64U C80U C88U A111G C114A — higher, -5.18
- G69A C88A — higher, -1.98
- G69A C88U — higher, -2.7
- A66G A83C C89U A95C — higher, -2.97
- A68U G69A — lower, -6.04
- G63U G77U U109A G135U — lower, -7.04
- A68C C115G C124U — lower, -6.57
- G63U C72U C82G G113C — higher, -4.22
- C64G U87A C124A — lower, -5.74
- A68G U78A C79U U106G — lower, -6.12
- C64U U81G — higher, -4.28
- G65A G117U — lower, -6.21
- A66C C94A C114G G120C — within 0.2 log units, -5.33
- G63U U78A A90U C94U G122U — higher, -3.99
- A66U C88U — higher, -0.564
- A66G C76A — higher, -1.89
- A66G C76G — higher, -1.2
- G63U C101A U116C A119G G120U — higher, -3.85
- A66C C85G U130A — higher, -3.4
- A66U U116G — higher, -3.73
- C64U U129A — higher, -0.991
- C64U U129G — higher, -1.46
- C64U U129C — higher, -0.708
- A66G G77U C89A — higher, -4.38
- C64G A121G — higher, -4.54
- C64G A121U — higher, -4.94
- G63U C85A — higher, -3.39
